Data: patent publication US20220220176

System: thrombin-cleavable prodrug of human NK1
Sequence (chain, as listed by the source): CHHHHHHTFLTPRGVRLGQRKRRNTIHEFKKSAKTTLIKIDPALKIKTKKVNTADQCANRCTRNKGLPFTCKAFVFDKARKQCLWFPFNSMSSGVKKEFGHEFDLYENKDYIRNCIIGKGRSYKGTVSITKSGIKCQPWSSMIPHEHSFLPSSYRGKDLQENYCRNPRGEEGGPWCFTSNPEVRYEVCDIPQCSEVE

Substance: thrombin (Thrombin from human plasma; Sigma-Aldrich Co. LLC)
- cleavage of the protease-sensitive peptide and release of human NK1 (SDS electrophoresis, CBB staining): The treatment of each prodrug of human NK1 with the corresponding protease (ADAM17 or thrombin) was found to cleave the protease-sensitive peptide contained in the prodrug of human NK1 so that the active form, human NK1, was released.
